Among the data in PMC12004944 are SecA eluted from H6-PepV beads with Δspa lysate, percent less than with WT lysate values, retold here.

The target in the assay is N-terminal six-histidine-tagged PepV (H6-PepV) (S. aureus) (UniProt Q2FXH9). As to the kind of experiment: pull-down; purified His-tagged bait (H6-PepV or SecA-H6) incubated 1 h at 4°C with cleared lysate of S. aureus RN4220 WT or Δspa, then Ni-NTA resin; immunoblot with αSecA and αPepV sera. For orientation: In western blotting, separated proteins are transferred to a membrane and probed.
Chain of UniProt Q2FXH9 (Q2FXH9 whole entry): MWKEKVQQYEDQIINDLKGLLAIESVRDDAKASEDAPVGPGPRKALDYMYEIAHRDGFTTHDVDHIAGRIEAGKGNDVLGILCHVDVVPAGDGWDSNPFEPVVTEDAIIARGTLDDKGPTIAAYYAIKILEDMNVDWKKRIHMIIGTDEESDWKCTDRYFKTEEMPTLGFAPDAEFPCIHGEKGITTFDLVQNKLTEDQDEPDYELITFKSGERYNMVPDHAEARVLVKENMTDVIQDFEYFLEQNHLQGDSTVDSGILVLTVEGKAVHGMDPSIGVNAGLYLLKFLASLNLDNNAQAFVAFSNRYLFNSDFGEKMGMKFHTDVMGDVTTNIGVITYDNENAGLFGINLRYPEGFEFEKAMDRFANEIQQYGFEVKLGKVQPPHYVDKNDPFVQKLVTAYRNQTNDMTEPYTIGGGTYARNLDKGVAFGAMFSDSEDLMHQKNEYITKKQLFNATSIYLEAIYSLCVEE

Regarding “SecA (endogenous, S. aureus RN4220) (from UniProt Q2YSH6 1-843) (natural protein)”, the SecA eluted from H6-PepV beads with Δspa lysate, percent less than with WT lysate came out at 30 % less.
